Patent US9944717

Biological target: T1, glycosylated recombinant human complement C2 with a N-terminal his-tag
T1 chain: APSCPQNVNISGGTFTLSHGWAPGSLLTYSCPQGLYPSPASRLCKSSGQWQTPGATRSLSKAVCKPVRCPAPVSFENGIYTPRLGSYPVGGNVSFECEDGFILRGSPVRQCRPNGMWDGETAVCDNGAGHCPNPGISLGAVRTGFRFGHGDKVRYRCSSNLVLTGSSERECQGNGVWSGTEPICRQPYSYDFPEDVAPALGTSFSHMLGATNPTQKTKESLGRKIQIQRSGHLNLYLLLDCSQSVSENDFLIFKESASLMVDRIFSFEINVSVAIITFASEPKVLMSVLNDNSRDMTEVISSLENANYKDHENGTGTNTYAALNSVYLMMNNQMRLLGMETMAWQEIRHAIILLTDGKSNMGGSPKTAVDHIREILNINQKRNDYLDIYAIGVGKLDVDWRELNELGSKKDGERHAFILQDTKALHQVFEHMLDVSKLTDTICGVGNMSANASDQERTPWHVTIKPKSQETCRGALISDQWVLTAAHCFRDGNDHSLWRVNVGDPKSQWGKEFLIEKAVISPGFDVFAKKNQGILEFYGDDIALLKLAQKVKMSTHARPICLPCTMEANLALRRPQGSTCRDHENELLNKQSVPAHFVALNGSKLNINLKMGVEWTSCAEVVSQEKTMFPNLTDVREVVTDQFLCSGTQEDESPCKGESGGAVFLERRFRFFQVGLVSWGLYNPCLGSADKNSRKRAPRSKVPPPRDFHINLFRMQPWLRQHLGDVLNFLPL

B1: plasma-derived activated human C1s (Calbiochem) (protein)
chain: EPTMYGEILSPNYPQAYPSEVEKSWDIEVPEGYGIHLYFTHLDIELSENCAYDSVQIISGDTEEGRLCGQRSSNNPHSPIVEEFQVPYNKLQVIFKSDFSNEERFTGFAAYYVATDINECTDFVDVPCSHFCNNFIGGYFCSCPPEYFLHDDMKNCGVNCSGDVFTALIGEIASPNYPKPYPENSRCEYQIRLEKGFQVVVTLRREDFDVEAADSAGNCLDSLVFVAGDRQFGPYCGHGFPGPLNIETKSNALDIIFQTDLTGQKKGWKLRYHGDPMPCPKEDTPNSVWEPAKAKYVFRDVVQITCLDGFEVVEGRVGATSFYSTCQSNGKWSNSKLKCQPVDCGIPESIENGKVEDPESTLFGSVIRYTCEEPYYYMENGGGGEYHCAGNGSWVNEVLGPELPKCVPVCGVPREPFEEKQRIIGGSDADIKNFPWQVFFDNPWAGGALINEYWVLTAAHVVEGNREPTMYVGSTSVQTSRLAKSKMLTPEHVFIHPGWKLLEVPEGRTNFDNDIALVRLKDPVKMGPTVSPICLPGTSSDYNLMDGDLGLISGWGRTEKRDRAVRLKAARLPVAPLRKCKEVKVEKPTADAEAYVFTPNMICAGGEKGMDSCKGDSGGAFAVQDPNDKTKFYAAGLVSWGPQCGTYGLYTRVKNYVDWIMKTMQENSTPRED
cleavage of recombinant C2 by C1s (SDS-PAGE, C1s-to-C2 ratio of 1:25): C1s cleaved recombinant C2 into subcomponents C2a (≈70 kDa) and C2b (≈30 kDa)
